{
  "source": "patent US20060246541A1",
  "biological_target": "GPIIb/IIIa (integrin αIIbβ3)",
  "assay": "cell-based or functional assay",
  "data": [
    {"substance": "native contortrostatin (from UniProt Q805F6 419-482) (ligand)", "values": [
      {"measurement": "IC50, inhibition of ADP-induced platelet aggregation", "result": 60, "unit": "nM"}
    ]}
  ]
}
